Molecular target: human UbcH5c, full-length (aa 1-147) (human) (UniProt P61077)
Test: ITC

Kd: 67.1 µM | dH: 2.9 kcal/mol | stoichiometry N: 0.99
Substance: human E4B U-box domain (aa 1208-1302) (from UniProt O95155 1208-1302) (domain or fragment)

From publication PMC3005147
